Bridges are numbered along the chain shown (N, C = ends). Where no end group is shown, it is not given here.
Target: soluble TPO-R (thrombopoietin receptor), immobilized (UniProt P40238 26-491)
Assay: competition ELISA vs MBP-TPO156 (+: IC50 <=200 µM)

Sequence of soluble TPO-R (thrombopoietin receptor), immobilized (P40238 26-491): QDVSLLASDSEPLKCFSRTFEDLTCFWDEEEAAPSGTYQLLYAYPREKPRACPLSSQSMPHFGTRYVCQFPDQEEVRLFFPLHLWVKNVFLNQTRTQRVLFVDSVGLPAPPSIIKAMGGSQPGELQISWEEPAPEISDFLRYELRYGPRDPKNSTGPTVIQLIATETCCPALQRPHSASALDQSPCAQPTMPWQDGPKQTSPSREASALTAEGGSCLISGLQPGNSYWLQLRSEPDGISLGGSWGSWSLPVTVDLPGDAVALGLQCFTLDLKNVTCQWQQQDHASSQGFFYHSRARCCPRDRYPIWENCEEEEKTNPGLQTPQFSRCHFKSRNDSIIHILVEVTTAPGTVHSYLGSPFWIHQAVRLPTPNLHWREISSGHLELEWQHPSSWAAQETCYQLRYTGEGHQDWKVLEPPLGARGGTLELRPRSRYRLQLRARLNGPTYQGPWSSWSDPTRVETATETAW

IC50 [µM] | Binder
0.5 to 200 | CPTLREWISFC-NH2 (disulfide 1-11 (inferred)) [cyclized SEQ ID NO:12 compound, ADG - deletion]
0.5 to 200 | CADGPTLREWASFC-NH2 (disulfide 1-14 (inferred)) [cyclized SEQ ID NO:12 compound, I - A]
